These results are taken from the supplement of paper PMC10567573.

± gives the standard deviation.

A short description of the data set: protein stability index of a GFP-peptide fusion (GPS, HEK-293T) (PSI 1-6); higher = more stable.
The mark [1] stands for this setting: treatment: DMSO, c terminus: a fixed tail appended.
The mark [2] stands for this setting: treatment: MLN4924 1 uM, 8 h, c terminus: a fixed tail appended.
Where [3] appears, read: treatment: DMSO, c terminus: native.
The mark [4] stands for this setting: treatment: MLN4924 1 uM, 8 h, c terminus: native.
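Further: 24-mer peptide tiles fused after GFP, lentivirally expressed, FACS-sorted into six equal bins by GFP/DsRed ratio, decoded by Illumina sequencing, PSI is the read-weighted mean bin number.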

Sequence EFRAHRAVLAASSPYFHDQVLLKG [ZBTB22] had a protein stability index under setting [1] of 2.57 ± 0.23 and a protein stability index under setting [2] of 2.77 ± 0.4.
For EGGGGGSYFSGQGSDTGASLKLAS [JUNB] the same measures were 4.67 ± 0.12 and 4.72 ± 0.12.
For the sequence EGQDLQHISNQKMPTGPPEDRLSL [DRICH1], the protein stability index came out at 5.11 ± 0.37 under setting [1] and 5.03 ± 0.26 under setting [2].
EHGLHTKYIHRMMQIEFIKQGSMN [TRAF3IP2] returned a protein stability index under setting [1] of 2.3 ± 0.2 and a protein stability index under setting [2] of 2.5 ± 0.26.
Take EHVFDLILELYNIDSHLLLSVLPQ [PDS5B]: the protein stability index worked out at 2.92 ± 0.47 under setting [1] and 2.85 ± 0.72 under setting [2].
For EHYRVQTQQTGTVRFDGYVIDGAT [FEM1B] the same measures were 3.64 ± 0.3 and 3.88 ± 0.26.
The corresponding values for EIFRRHFRQLCYQETPGPREALTR [ZSCAN9] are 2.51 ± 0.17 and 2.76 ± 0.24.
Turning to EIGTSDQIVPEYQEDSDISSFFC [TRIB1], the protein stability index turned out to be 3.38 ± 0.66 under setting [3] and 4.22 ± 0.82 under setting [4].
As to EIKDKDQLVLRTKEAFDTIQEQKV [SASS6], the protein stability index by setting is: under setting [1], 4.54 ± 0.25; under setting [2], 4.53 ± 0.46.
As to EIMLQYCFPRLDINVSKGINHLLK [PRIM1], the protein stability index runs as follows: under setting [1], 2.18 ± 0.67; under setting [2], 2.5 ± 0.47.
Consider EIQREIGISNALHRLKLRLAIQEM [PPFIA4], for which the protein stability index stood at 2.35 ± 0.72 under setting [1] and 2.3 ± 0.45 under setting [2].
As for EKEDAEKENIEKDEDDVDQELANI [SRPK2], the protein stability index amounted to 5.62 ± 0.36 under setting [1] and 5.61 ± 0.31 under setting [2].
On to EKEEDHAPEFIKVRENLRRIATLT [FAM107A], for which the protein stability index is, setting by setting: under setting [1], 2.58 ± 0.56; under setting [2], 2.81 ± 0.6.
The corresponding values for EKQELQELNDRFANFIEKVRFLEQ [PRPH] are 3.08 ± 0.17 and 3.29 ± 0.34.
The corresponding values for EKQKQPRWREGTKDSHDPLPSWAE [PBXIP1] are 3.01 ± 0.51 and 3.18 ± 1.1.
For the sequence EKRLQEIEELEREAERKIIEENIT [SRPK2], the protein stability index worked out at 5.03 ± 0.33 under setting [1] and 5.39 ± 0.26 under setting [2].
The corresponding values for ELADARRALDDTARERAKLQIELG [LMNB1] are 4.72 ± 0.075 and 4.69 ± 0.15.
The corresponding values for ELKCPVCGSFYREPIILPCSHNLC [TRIM9] are 4.1 ± 0.29 and 4.12 ± 0.32.
For ELKKMVQQSDLGQYVTFLRSFSDK [ALG2] the same measures were 2.21 ± 0.29 and 2.53 ± 0.42.
As to ELMPSSRLWSLSYTKLPSSLQSTG [SLC25A39], the protein stability index was 2.48 ± 0.13 under setting [1] and 2.47 ± 0.14 under setting [2].
For ELRDLQVSVESQQVQQVEVEATVK [PRPH] the same measures were 4.88 ± 0.2 and 4.96 ± 0.14.
For ELRGAEPGRPARLDQLLDMPAAGL [SPSB4] the same measures were 3.84 ± 0.46 and 4.02 ± 0.5.
Consider ELSLVTLFRCIQNMPETLPNNSCY [TNFSF13B], for which the protein stability index runs as follows: under setting [1], 3.65 ± 1.3; under setting [2], 2.94 ± 0.5.
ELYGLALRFFKEKDGKAFHPTYEE [ACBD3]: the protein stability index turned out to be 2.13 ± 0.26 under setting [1] and 2.19 ± 0.35 under setting [2].
Regarding EMPKSSDFLIHPPERSDLTLYLIV [PCDHGC5], the protein stability index under setting [1] was found to be 2.83 ± 0.47 and the protein stability index under setting [2] worked out at 2.72 ± 0.3.
On to ENLKQQRSRREQFSRAPVSALPLA [STX5], for which the protein stability index under setting [1] amounted to 3.74 ± 0.37 and the protein stability index under setting [2] was 3.75 ± 0.17.
For EPCQLPSESPGSLSEVLAQPQGAL [DNAAF3], the protein stability index under setting [1] stood at 5.16 ± 0.22 and the protein stability index under setting [2] amounted to 5.13 ± 0.39.
For EPEKLYAMPDPAGPDGHLPAVATL [ESRRA] the same measures were 4.65 ± 0.27 and 4.69 ± 0.23.
For EPLPVERDPAAGAAPFRFVARPVR [ZNF511] the same measures were 2.77 ± 0.68 and 3.48 ± 0.87.
As to EPPTEAASREENQAGPEATTSDPQ [PALM], the protein stability index runs as follows: under setting [1], 5.61 ± 0.26; under setting [2], 5.49 ± 0.3.
For EQARAYAEKNCMTFFEVSPLCNFN [RAB40C] the same measures were 2.49 ± 0.31 and 2.38 ± 0.15.
The corresponding values for ERAHKGEKPYGCSECGKAFPRKSE [ZNF649] are 4.23 ± 0.12 and 4.7 ± 0.48.
As to ERAPTATFHDSKHNIVHVHFDATR [WDFY2], the protein stability index reads like this: under setting [1], 3.34 ± 0.17; under setting [2], 3.33 ± 0.29.
The corresponding values for EREVRAKNGRVDSEDRRSRHCPYL [USP39] are 4.39 ± 0.24 and 4.5 ± 0.32.
The corresponding values for ERFHGVGILGFNSAEWFITAVGAI [ACSBG2] are 2.75 ± 1.1 and 2.78 ± 1.3.
Turning to ERRELAVEQGERALERRRRALQEE [ZBED3], the protein stability index reads like this: under setting [1], 5.34 ± 0.17; under setting [2], 5.39 ± 0.31.
As for ERSLRLQARYHDTPYKPPAGRAAA [MYORG], the protein stability index is, setting by setting: under setting [1], 3.55 ± 0.31; under setting [2], 4.15 ± 0.11.
For ESENASLREKLRLREAEIARIRDE [LRRC45] the same measures were 5.26 ± 0.17 and 5.11 ± 0.11.
ESLKEELLSLKQNHEQEVNTLRCQ [KRT33B]: the protein stability index is 4.91 ± 0.099 under setting [1] and 4.78 ± 0.24 under setting [2].
Consider ESLMKDGDKNNDGRIDFDEFLKMM [TNNC2], for which the protein stability index came to 4.53 ± 0.1 under setting [1] and 4.55 ± 0.31 under setting [2].
Regarding ESQVFSEKLATDTSTFEATSEGTL [ZNF232], the protein stability index under setting [1] was found to be 5.29 ± 0.13 and the protein stability index under setting [2] turned out to be 5.15 ± 0.13.
The corresponding values for ETIPLTAEKLCIYTDNSIRPEELL [CCND1] are 3.59 ± 0.41 and 3.94 ± 0.34.
With ETKLHLLRQEMVNLRATDVRLMRQ [LURAP1L], the protein stability index reads like this: under setting [1], 2.96 ± 0.34; under setting [2], 3.17 ± 0.16.
Regarding ETSYQQREERLRRENEELSARYLS [FBF1], the protein stability index under setting [1] came out at 4.79 ± 0.2 and the protein stability index under setting [2] turned out to be 4.89 ± 0.17.
The corresponding values for EVASNTEMIQTSKTEITDLRRTMQ [KRT15] are 3.89 ± 0.21 and 4.27 ± 0.32.
The corresponding values for EVFIEWGISAKVFGATTNYGKDIV [ZBED1] are 2.35 ± 0.64 and 2.44 ± 0.3.
Take EVHFLHEESILERVQQHIESKLLG [MLH1]: the protein stability index runs as follows: under setting [1], 2.98 ± 0.19; under setting [2], 3.19 ± 0.24.
The corresponding values for EVTASQEARGLRLSDLEDLEEEEE [IRX6] are 5.73 ± 0.34 and 5.64 ± 0.14.
The corresponding values for EYFFDRNRPSFDAILYYYQSGGRL [KCNA1] are 2.52 ± 0.43 and 2.18 ± 0.29.
For EYQLNDSAAYYLNDLDRIAQPNYI [GNAI1] the same measures were 2.61 ± 0.15 and 2.79 ± 0.49.
For the sequence FDSPSLCSSSTRSVLKRPERSQEE [CDC25A], the protein stability index worked out at 5.04 ± 0.31 under setting [1] and 5.12 ± 0.16 under setting [2].
In turn, FEYPESSGPARVIAIVSVMVILIS [KCNA1] registered a protein stability index under setting [1] of 2.82 ± 0.47 and a protein stability index under setting [2] of 2.87 ± 0.48.
Turning to FFIESCGAQVPVEGSRRETSITV, the protein stability index reads like this: under setting [3], 2.56 ± 0.97; under setting [4], 2.29 ± 0.36.
With FGGVDGLLAGGEKATMQNLNDRLA [KRT17], the protein stability index runs as follows: under setting [1], 3.5 ± 0.32; under setting [2], 3.69 ± 0.26.
FIENNVSKLSLLLNDISRKSEGLS [TRIP13] had a protein stability index under setting [1] of 2.39 ± 0.35 and a protein stability index under setting [2] of 2.33 ± 0.26.
For FKKGNRYIRCQKEVGKSFERHKLK [SMG5] the same measures were 2.75 ± 0.23 and 2.85 ± 0.14.
FKKTAYELLDEKLLARGTMQPFNY [FEM1A] came in with a protein stability index under setting [1] of 2.37 ± 0.46 and a protein stability index under setting [2] of 2.61 ± 0.17.
For FKTIEELRDKIMATTIDNSRVILE [KRT15] the same measures were 2.54 ± 0.28 and 2.65 ± 0.26.
For FLDERLYCESHAKARVKPPEGYDV [PDLIM4] the same measures were 2.78 ± 0.8 and 3.23 ± 0.93.
The corresponding values for FLESQGIELNPPEKMALDPYTELR [EFHC1] are 3.79 ± 0.41 and 3.89 ± 0.35.
In turn, FLFPIDISLVKREHDFLDRDAIEA [DLC1] yielded a protein stability index under setting [1] of 2.66 ± 0.57 and a protein stability index under setting [2] of 2.72 ± 0.31.
The corresponding values for FLQNAKTLLKKISEASKAFQMEKI [TRIM55] are 3 ± 0.65 and 2.77 ± 0.42.
Consider FLRSLRQMKQKVQSLYQEVFGRLR [NFE2L1], for which the protein stability index is 2.41 ± 0.59 under setting [1] and 1.7 ± 0.43 under setting [2].
On to FLSFSMYQSFVQFLQYYYQSGCLY [TMEM120A], for which the protein stability index under setting [1] is 3.02 ± 0.39 and the protein stability index under setting [2] amounted to 3.54 ± 0.45.
Turning to FMEMNQKLFDDCTQQFKAEKLKEK [PPP2R5C], the protein stability index was determined as 4.26 ± 0.31 under setting [1] and 4.43 ± 0.28 under setting [2].
For FNGDFVDRGKDSVEILMILFAFML [PPEF2] the same measures were 2.62 ± 0.54 and 2.15 ± 0.27.
For FPDGDDEFDSPHEDIVFETDHILE [STX11] the same measures were 5.19 ± 0.25 and 5.29 ± 0.16.
Turning to FQAKKIPIVSSLADPLDTPPDSKE [PDZK1], the protein stability index under setting [1] is 4.16 ± 0.3 and the protein stability index under setting [2] amounted to 4.39 ± 0.63.
For FQCNQCGASFTQKGNLLRHIKLHS [IKZF1] the same measures were 4.56 ± 0.16 and 4.4 ± 0.76.
The corresponding values for FRGDDGIFDDNFIEERKQGLEQFI [SNX3] are 3.28 ± 0.18 and 3.76 ± 0.66.
The corresponding values for FSEIISSISDVKFSHSGRYIMTRD [PPP2R2B] are 2.52 ± 0.28 and 2.53 ± 0.29.
As for FSGWISALVVPKGNTAVSVLMLLV [SCAMP3], the protein stability index by setting is: under setting [1], 2.87 ± 0.39; under setting [2], 2.73 ± 0.46.
